Measured values published in patent US20230203129A1 (BRACCO IMAGING S P A, published 2023).

Legend:
Experiment in all cases: ELISA during and after library selection
human serum albumin = target: T1, human serum albumin (human, UniProt P02768 25-609)
T1 construct: also called HSA

murine serum albumin = target: T2, murine serum albumin (murine, UniProt P07724 25-608)
T2 construct: also called MSA; mouse serum albumin

bovine serum albumin = target: T3, bovine serum albumin (bovine, UniProt P02769 25-607)
T3 construct: also called BSA
T3 sequence (P02769 25-607 limits assumed): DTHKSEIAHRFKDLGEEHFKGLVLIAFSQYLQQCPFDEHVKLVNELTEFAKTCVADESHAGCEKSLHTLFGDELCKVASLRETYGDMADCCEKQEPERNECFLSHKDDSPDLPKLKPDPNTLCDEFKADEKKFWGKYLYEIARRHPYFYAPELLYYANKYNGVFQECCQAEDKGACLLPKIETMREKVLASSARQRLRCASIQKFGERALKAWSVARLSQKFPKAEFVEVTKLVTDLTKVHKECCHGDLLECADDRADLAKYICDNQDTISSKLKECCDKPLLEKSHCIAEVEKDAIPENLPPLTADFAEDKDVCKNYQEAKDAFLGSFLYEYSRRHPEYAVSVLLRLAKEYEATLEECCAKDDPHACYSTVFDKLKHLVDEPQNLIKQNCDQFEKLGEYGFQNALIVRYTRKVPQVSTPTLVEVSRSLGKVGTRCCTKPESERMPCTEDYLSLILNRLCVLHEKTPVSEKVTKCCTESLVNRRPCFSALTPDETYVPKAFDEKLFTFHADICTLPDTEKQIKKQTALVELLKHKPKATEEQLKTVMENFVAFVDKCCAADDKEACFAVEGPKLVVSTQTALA

Measured: binding result

T1 sequence (P02768 25-609 limits assumed): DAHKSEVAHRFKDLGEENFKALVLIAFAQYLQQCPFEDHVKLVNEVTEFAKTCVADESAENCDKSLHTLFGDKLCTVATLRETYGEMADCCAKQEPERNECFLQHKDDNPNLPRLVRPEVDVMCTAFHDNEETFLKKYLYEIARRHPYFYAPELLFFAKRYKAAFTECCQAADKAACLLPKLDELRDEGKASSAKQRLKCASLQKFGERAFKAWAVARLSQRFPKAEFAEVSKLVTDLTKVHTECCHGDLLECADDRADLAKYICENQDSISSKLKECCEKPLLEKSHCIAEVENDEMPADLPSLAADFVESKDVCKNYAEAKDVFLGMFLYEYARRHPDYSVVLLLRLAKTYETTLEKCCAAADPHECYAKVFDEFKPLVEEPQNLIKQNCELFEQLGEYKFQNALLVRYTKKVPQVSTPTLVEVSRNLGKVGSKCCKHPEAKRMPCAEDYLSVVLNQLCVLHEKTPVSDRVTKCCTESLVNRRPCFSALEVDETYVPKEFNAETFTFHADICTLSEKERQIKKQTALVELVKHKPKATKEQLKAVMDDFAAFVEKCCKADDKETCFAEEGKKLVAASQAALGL

B1: affitin Aff03 (designed binder)
chain: VKVKFGHMGEEKEVDTSKIYAVNRAGKFVHFAYDDNGKFGSGSVPEKDAPKELLDMLARAEREK
no binding: all assays above
